Numbering of substitutions follows the chain as printed.
T1: Recombinant human CXCL16 (rhCXCL16) protein (human, UniProt Q9H2A7 30-118, limits assumed)
T1 construct: Bought recombinant protein (976-CX, R&D systems); also called CXCL16 antigen; 976-CX (R&D systems)
T1 sequence: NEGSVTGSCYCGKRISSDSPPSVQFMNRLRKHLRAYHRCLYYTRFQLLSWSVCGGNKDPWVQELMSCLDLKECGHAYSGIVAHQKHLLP

T2: Recombinant mouse CXCL16 antigen (mouse, UniProt Q8BSU2 27-114, limits assumed)
T2 construct: Bought recombinant protein (503-CX, R&D systems); also called 503-CX (R&D systems)
T2 sequence: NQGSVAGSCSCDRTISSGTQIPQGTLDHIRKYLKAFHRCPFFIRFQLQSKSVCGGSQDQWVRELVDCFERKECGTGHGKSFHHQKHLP

B1: HC3LC3 (antibody, human IgG1, kappa, V domains shown)
VH: EVQLVESGGGLVQPGGSLKLSCAASGFTFSNAVMNWVRQAPGKGLEWVGRIRTKPNNYATFYADSVKGRFTFSRDDSKNTAYLQMNILKTEDTAMYYCTAWTTEGIYWGQGTTVTVSS
VL: DIQMTQSPSSLSASVGDRVTITCKSSQSLLYSGNQKNYLAWYQQKPGQSPKLLIYWASTRQSGVPDRFSGSGSGTDFTLTISSLQAEDFATYYCQQYYDTPWTFGGGTKVEIKR
notes: Humanized variant; human IgG1 / kappa constant domains
B2: HC4LC3 (antibody, human IgG1, kappa, V domains shown)
VH: B1 VH with Q13K, K19R, G49A, A81L, I87S, M95V
VL: B1 VL
notes: as for B1
B3: HC1LC4 (antibody, human IgG1, kappa, V domains shown)
VH: QVQLVESGGGVVQPGGSLRLSCAASGFTFSNAVMNWVRQAPGKGLEWVARIRTKPNNYATFYADSVKGRFTFSRDNSKTMLYLQMNSLRAEDTAVYYCTAWTTEGIYWGQGTLVTVSS
VL: B1 VL with D66S, A86P, F89L, T91I, V110L, I112L
notes: as for B1
B4: HC3LC4 (antibody, human IgG1, kappa, V domains shown)
VH: B1 VH
VL: B1 VL with D66S, A86P, F89L, T91I, V110L, I112L
notes: as for B1
B5: HC1LC3 (antibody, human IgG1, kappa, V domains shown)
VH: B3 VH
VL: B1 VL
notes: as for B1
B6: HC4LC4 (antibody, human IgG1, kappa, V domains shown)
VH: B1 VH with Q13K, K19R, G49A, A81L, I87S, M95V
VL: B1 VL with D66S, A86P, F89L, T91I, V110L, I112L
notes: as for B1
B7: HC4LC2 (antibody, human IgG1, kappa, V domains shown)
VH: B1 VH with Q13K, K19R, G49A, A81L, I87S, M95V
VL: DIVMTQSPSSLAVSLGETATINCKSSQSLLYSGNQKNYLAWYQQKPGQPPKLLIYWASTRQSGVPDRFTGSGAGTDFTLTISSVQAEDLAIYYCQQYYDTPWTFGGGTKVEIKR
notes: as for B1
B8: HC2LC4 (antibody, human IgG1, kappa, V domains shown)
VH: B1 VH with E1A, L20I, P41S, F72I, I87S, T113L
VL: B1 VL with D66S, A86P, F89L, T91I, V110L, I112L
notes: as for B1
B9: HC1LC1 (antibody, human IgG1, kappa, V domains shown)
VH: B3 VH
VL: B7 VL with S9D, L15A, A19V, P49S, T69S, A73S, L89V, I91V
notes: as for B1
B10: HC2LC2 (antibody, human IgG1, kappa, V domains shown)
VH: B1 VH with E1A, L20I, P41S, F72I, I87S, T113L
VL: B7 VL
notes: as for B1
B11: HC1LC2 (antibody, human IgG1, kappa, V domains shown)
VH: B3 VH
VL: B7 VL
notes: as for B1
B12: HC2LC3 (antibody, human IgG1, kappa, V domains shown)
VH: B1 VH with E1A, L20I, P41S, F72I, I87S, T113L
VL: B1 VL
notes: as for B1
B13: HC3LC2 (antibody, human IgG1, kappa, V domains shown)
VH: B1 VH
VL: B7 VL
notes: as for B1
B14: HC3LC1 (antibody, human IgG1, kappa, V domains shown)
VH: B1 VH
VL: B7 VL with S9D, L15A, A19V, P49S, T69S, A73S, L89V, I91V
notes: as for B1
B15: HC4LC5 (antibody, human IgG1, kappa, V domains shown)
VH: B1 VH with Q13K, K19R, G49A, A81L, I87S, M95V
VL: B7 VL with L15A, T18R, P49S, T69I, A73S, V84L, L89V, V110L, I112L
notes: as for B1
B16: HC2LC1 (antibody, human IgG1, kappa, V domains shown)
VH: B1 VH with E1A, L20I, P41S, F72I, I87S, T113L
VL: B7 VL with S9D, L15A, A19V, P49S, T69S, A73S, L89V, I91V
notes: as for B1
B17: HC1LC5 (antibody, human IgG1, kappa, V domains shown)
VH: B3 VH
VL: B7 VL with L15A, T18R, P49S, T69I, A73S, V84L, L89V, V110L, I112L
notes: as for B1
B18: HC3LC5 (antibody, human IgG1, kappa, V domains shown)
VH: B1 VH
VL: B7 VL with L15A, T18R, P49S, T69I, A73S, V84L, L89V, V110L, I112L
notes: as for B1
B19: HC5LC4 (antibody, human IgG1, kappa, V domains shown)
VH: B1 VH with P41S, G49A, I87S, T113L
VL: B1 VL with D66S, A86P, F89L, T91I, V110L, I112L
notes: as for B1
B20: HC2LC5 (antibody, human IgG1, kappa, V domains shown)
VH: B1 VH with E1A, L20I, P41S, F72I, I87S, T113L
VL: B7 VL with L15A, T18R, P49S, T69I, A73S, V84L, L89V, V110L, I112L
notes: as for B1
B21: Chimeric antibody HC0LC0 (antibody, V domains shown)
VH: AVQLVESGGGLVQPKESLKISCAASGFTFSNAVMNWVRQAPGKGLEWVARIRTKPNNYATFYADSVKGRFTFSRDDSKSMVYLQMDNLKTEDTAMYYCTAWTTEGIYWGQGTLVTVSS
VL: B7 VL with L15A, A19V, P49S, T69I, A73S, V110L, I112L
notes: also called CLS-A1HC0LC0; variant antibody
B22: HC5LC1 (antibody, human IgG1, kappa, V domains shown)
VH: B1 VH with P41S, G49A, I87S, T113L
VL: B7 VL with S9D, L15A, A19V, P49S, T69S, A73S, L89V, I91V
notes: Humanized; human IgG1 / kappa constant domains; also called HCSLC1; humanized CXCL16 antibody HC5LC1
B23: HC5LC3 (antibody, human IgG1, kappa, V domains shown)
VH: B1 VH with P41S, G49A, I87S, T113L
VL: B1 VL
notes: Humanized; human IgG1 / kappa constant domains; also called HCSLC3; humanized CXCL16 antibody HC5LC3
B24: HC4LC1 (antibody, human IgG1, kappa, V domains shown)
VH: B1 VH with Q13K, K19R, G49A, A81L, I87S, M95V
VL: B7 VL with S9D, L15A, A19V, P49S, T69S, A73S, L89V, I91V
notes: Humanized; human IgG1 / kappa constant domains; also called humanized CXCL16 antibody HC4LC1

The binders below were run against T1, Recombinant human CXCL16 (rhCXCL16) … (assay: BLI (ForteBio), antibody captured on biosensor, rhCXCL16 in solution).
Procedure: (§1) The binding characteristics of 25 CXCL16 antibodies were analyzed using the bio-light interferometry (ForteBio). All antibodies were diluted in freshly prepared running buffer. Antibodies were immobilized onto the surface of a series of biosensors using the capture methods at 0.3 μg/mL. Recombinant human CXCL16 (rhCXCL16) protein (100 nM) was passed over the surface to generate a binding response for 10 minutes. Binding data for the antibody and antigen interactions were collected at 25° C. on the biosensors. Then, the running buffer was passed for 10 minutes to dissociate them. The association constant (kₐ) and the dissociation constant (kₐ) were observed, and the equilibrium binding constant (KD) was calculated. […] R2: The value indicating how well the fit and experimental data correlate; X²: The measure of error between the experimental data and fitted line.
B1: no binding (tested: 100 nM rhCXCL16).
B2: no binding (tested: 100 nM rhCXCL16).
B3: no binding (tested: 100 nM rhCXCL16).
B4: no binding (tested: 100 nM rhCXCL16).
B5: no binding (tested: 100 nM rhCXCL16).
B6: no binding (tested: 100 nM rhCXCL16).
B7: no binding (tested: 100 nM rhCXCL16).
B8: no binding (tested: 100 nM rhCXCL16).
B9: no binding (tested: 100 nM rhCXCL16).
B10: no binding (tested: 100 nM rhCXCL16).
B11: no binding (tested: 100 nM rhCXCL16).
B12: no binding (tested: 100 nM rhCXCL16).
B13: no binding (tested: 100 nM rhCXCL16).
B14: no binding (tested: 100 nM rhCXCL16).
B15: no binding (tested: 100 nM rhCXCL16).
B16: no binding (tested: 100 nM rhCXCL16).
B17: no binding (tested: 100 nM rhCXCL16).
B18: no binding (tested: 100 nM rhCXCL16).
B19: no binding (tested: 100 nM rhCXCL16).
B20: no binding (tested: 100 nM rhCXCL16).

The binders below were run against T1, Recombinant human CXCL16 (rhCXCL16) … (assay: BLI (ForteBio), antibody captured on biosensor, rhCXCL16 in solution, 25 C).
Procedure: as §1
Work on B21 yielded a Kd of under 0.001 nM and a koff of under 1e-07 s⁻¹.
B22 showed a Kd of 3.26 nM, a koff of 5.97e-05 s⁻¹ and a kon of 18300 M⁻¹ s⁻¹.
B23 showed a Kd of 1.44 nM and a koff of 0.000635 s⁻¹.
Work on B24 yielded a Kd of 1.09 nM, a koff of 1.9e-05 s⁻¹ and a kon of 17400 M⁻¹ s⁻¹.

Molecular target: T1, Recombinant human CXCL16 (rhCXCL16) …
Assay: as above
Remark: another data set of the same source
With B21 the “Res@3.7 nM” value was 0.13.
For B22, the “Res@3.7 nM” value was 0.08.
For B23, the “Res@3.7 nM” value was 0.078.
In the case of B24, the “Res@3.7 nM” value is reported as 0.113.

Each binder was assayed against T2, Recombinant mouse CXCL16 antigen (assay: ELISA, recombinant mouse CXCL16 immobilized on the plate, HRP-labeled anti-human IgG detection, OD 450 nm).
Procedure: To evaluate the cross-reactivity with mouse CXCL16 antigen, the same ELISA experiment was performed with recombinant mouse CXCL16 antigen (503-CX, R&D systems). The mouse CXCL16 antigen was immobilized onto 96-well plates by incubation for 2 hours at room temperature. Non-specific binding sites were blocked by incubating with 1% BSA in PBS overnight at 4° C. After coating, the plates were washed with PBS. Humanized CXCL16 antibodies at various concentration (0.00 1˜10 nM) were incubated with the immobilized antigen for 2 hours at room temperature. After binding, the plates were washed, incubated with HRP-labeled anti-human IgG antibody (W4031, Promega, USA) for 0.5 hours, and developed using the substrate solution (DY008B, R&D systems). The binding affinity of humanized antibodies was similar to that of IgG antibody.
B21: no binding (tested: 1500 ng/mL).

Source: patent publication US20240327509A1, “HUMAN CXCLI6 ANTIBODIES AND THE USE THEREOF” (CELLUS,INC., priority 2021, published 2024)
